Our source for the abundance fitness values is the Human Domainome abundance scans (Beltran et al. 2025).

Sequences and labels used below:
B1: Pre-mRNA-processing factor 40 homolog B, residues 274 to 332; numbered along this chain, Q6NWY9 (parent)
chain: SNREKAKQAFKELLRDKAVPSNASWEQAMKMVVTDPRYSALPKLSEKKQAFNAYKAQRE

± gives the uncertainty stated by the source.

The data set covers variants of B1. The data set is described as follows: abundance fitness (aPCA) (normalised: wild type 0, dead -1); higher = more abundant; growth selection in yeast, the domain comes from the species named. The note with it: Homo sapiens.
N2M: the abundance fitness was -0.393 ± 0.12.

With N2G, the abundance fitness is -0.207 ± 0.069.

N2C: the abundance fitness was -0.547 ± 0.15.

For N2W, the abundance fitness is -0.276 ± 0.12.

N2E: the abundance fitness is -0.089 ± 0.1.

Turning to N2A, the abundance fitness is -0.406 ± 0.12.

On to N2K, for which the abundance fitness was -0.139 ± 0.11.

For the variant N2V, the abundance fitness was -0.849 ± 0.16.

On to N2Y, for which the abundance fitness is -1.01 ± 0.34.

Turning to N2I, the abundance fitness is -0.46 ± 0.23.

As to N2S, the abundance fitness is -0.208 ± 0.09.

Regarding N2D, the abundance fitness is 0.033 ± 0.18.

Regarding N2L, the abundance fitness was -0.581 ± 0.12.

Regarding N2Q, the abundance fitness worked out at 0.037 ± 0.095.

Regarding N2H, the abundance fitness was -0.83 ± 0.2.

As for N2P, the abundance fitness was -0.497 ± 0.17.

In the case of N2R, the abundance fitness was -0.324 ± 0.073.

N2T: the abundance fitness worked out at 0.027 ± 0.11.

Consider A9I, for which the abundance fitness was determined as 0.081 ± 0.13.

As for A9L, the abundance fitness was -0.092 ± 0.088.

For the variant A9R, the abundance fitness was -0.364 ± 0.06.

A9F: the abundance fitness was -0.563 ± 0.35.

As to A9K, the abundance fitness is -0.196 ± 0.089.

For A9Y, the abundance fitness is -0.417 ± 0.21.

Regarding A9E, the abundance fitness was -0.038 ± 0.088.

Take A9M: the abundance fitness is -0.119 ± 0.12.

A9W: the abundance fitness is -0.72 ± 0.096.

With A9S, the abundance fitness was -0.106 ± 0.1.

As for A9H, the abundance fitness was -0.458 ± 0.13.

A9G: the abundance fitness is -0.292 ± 0.064.

Take A9P: the abundance fitness was -0.536 ± 0.11.

In the case of A9D, the abundance fitness was determined as 0.09 ± 0.12.

Take A9T: the abundance fitness worked out at 0.117 ± 0.11.

As to A9C, the abundance fitness was -0.094 ± 0.1.

As for A9V, the abundance fitness came to 0.003 ± 0.077.

As for A9Q, the abundance fitness is -0.041 ± 0.13.

Consider A9N, for which the abundance fitness was -0.279 ± 0.14.

For the variant R15C, the abundance fitness was -0.171 ± 0.11.

As for R15E, the abundance fitness was 0.046 ± 0.14.

With R15M, the abundance fitness was found to be 0.219 ± 0.2.

As for R15G, the abundance fitness was -0.211 ± 0.084.

As for R15I, the abundance fitness is -0.052 ± 0.18.

In the case of R15H, the abundance fitness was 0.064 ± 0.32.

On to R15P, for which the abundance fitness was -0.593 ± 0.12.

In the case of R15W, the abundance fitness is -0.106 ± 0.1.

Turning to R15V, the abundance fitness was -0.001 ± 0.087.

Regarding R15Q, the abundance fitness is -0.062 ± 0.14.

Take R15S: the abundance fitness was -0.214 ± 0.1.

As to R15D, the abundance fitness is -0.238 ± 0.16.

Turning to R15N, the abundance fitness stood at 0.015 ± 0.15.

For R15K, the abundance fitness is -0.129 ± 0.16.

As for R15L, the abundance fitness is -0.097 ± 0.077.

Take R15F: the abundance fitness is 0.019 ± 0.13.

Regarding R15Y, the abundance fitness is -0.091 ± 0.18.

As for R15A, the abundance fitness was 0.001 ± 0.089.

Take V19P: the abundance fitness is -0.477 ± 0.11.

As to V19S, the abundance fitness is -0.533 ± 0.078.

For V19I, the abundance fitness was -0.462 ± 0.13.

On to V19M, for which the abundance fitness was -0.32 ± 0.095.

Turning to V19H, the abundance fitness is -0.938 ± 0.23.

As for V19K, the abundance fitness is -0.807 ± 0.13.

V19D: the abundance fitness was -0.295 ± 0.13.

In the case of V19Y, the abundance fitness is -0.992 ± 0.15.

Regarding V19E, the abundance fitness was -0.375 ± 0.096.

For the variant V19F, the abundance fitness is -0.932 ± 0.14.

As for V19Q, the abundance fitness was -0.383 ± 0.2.

Consider V19G, for which the abundance fitness is -0.479 ± 0.056.

As for V19R, the abundance fitness is -0.633 ± 0.065.

Take V19N: the abundance fitness is -0.598 ± 0.19.

In the case of V19T, the abundance fitness is -0.231 ± 0.1.

Turning to V19L, the abundance fitness is -0.606 ± 0.084.

With V19A, the abundance fitness was -0.612 ± 0.085.

On to V19C, for which the abundance fitness is -0.583 ± 0.11.

V19W: the abundance fitness was -0.589 ± 0.083.

With L14Y, the abundance fitness was -0.925 ± 0.18.

For the variant L14K, the abundance fitness was -0.408 ± 0.11.

For the variant L14D, the abundance fitness is -0.504 ± 0.11.

As to L14V, the abundance fitness was -0.385 ± 0.068.

In the case of L14P, the abundance fitness is -0.261 ± 0.1.

With L14Q, the abundance fitness is -0.339 ± 0.12.

With L14M, the abundance fitness was -0.639 ± 0.1.

Regarding L14N, the abundance fitness was -0.376 ± 0.11.

L14T: the abundance fitness is -0.547 ± 0.098.

For L14S, the abundance fitness was -0.384 ± 0.079.

As to L14I, the abundance fitness is -1.05 ± 0.27.

Turning to L14C, the abundance fitness was -0.483 ± 0.11.

Turning to L14A, the abundance fitness is -0.452 ± 0.069.

For the variant L14R, the abundance fitness was -0.71 ± 0.067.

Regarding L14W, the abundance fitness was -0.963 ± 0.11.

L14E: the abundance fitness is -0.339 ± 0.096.

For the variant L14H, the abundance fitness was -0.573 ± 0.2.

Turning to L14G, the abundance fitness is -0.403 ± 0.054.

For the variant L14F, the abundance fitness is -0.683 ± 0.12.

A18V: the abundance fitness was -0.367 ± 0.065.

On to A18L, for which the abundance fitness was -0.127 ± 0.069.

Turning to A18N, the abundance fitness was -0.067 ± 0.15.

On to A18E, for which the abundance fitness was -0.012 ± 0.069.

With A18F, the abundance fitness is -0.539 ± 0.18.

Take A18H: the abundance fitness is 0.074 ± 0.14.

In the case of A18Y, the abundance fitness is -0.656 ± 0.19.

A18S: the abundance fitness was -0.089 ± 0.073.

For the variant A18P, the abundance fitness is -0.606 ± 0.096.

For the variant A18K, the abundance fitness is -0.043 ± 0.086.

For A18M, the abundance fitness is -0.096 ± 0.11.

In the case of A18R, the abundance fitness was -0.035 ± 0.058.

In the case of A18W, the abundance fitness is -0.473 ± 0.085.

As to A18D, the abundance fitness is 0.045 ± 0.14.

For A18I, the abundance fitness is -0.536 ± 0.13.

With A18T, the abundance fitness is -0.282 ± 0.097.

For the variant A18Q, the abundance fitness came out at 0.101 ± 0.092.

Consider A18C, for which the abundance fitness is 0.007 ± 0.11.

Regarding R3N, the abundance fitness stood at 0.221 ± 0.23.

Regarding R3K, the abundance fitness came to 0.308 ± 0.12.

In the case of R3D, the abundance fitness was 0.036 ± 0.19.

Regarding R3G, the abundance fitness is -0.084 ± 0.072.

In the case of R3A, the abundance fitness was -0.409 ± 0.1.

R3S: the abundance fitness came out at 0.076 ± 0.089.

As for R3P, the abundance fitness turned out to be 0.034 ± 0.082.

Consider R3F, for which the abundance fitness was -0.27 ± 0.17.

On to R3M, for which the abundance fitness was found to be 0.07 ± 0.1.

As for R3L, the abundance fitness came out at 0.044 ± 0.089.

R3W: the abundance fitness is -0.251 ± 0.11.

In the case of R3I, the abundance fitness is 0.06 ± 0.16.

As to R3C, the abundance fitness came to 0.043 ± 0.12.

As to R3E, the abundance fitness was -0.047 ± 0.11.

For the variant R3T, the abundance fitness was -0.062 ± 0.1.

On to R3H, for which the abundance fitness is -0.281 ± 0.22.

Regarding Q8H, the abundance fitness is -0.341 ± 0.21.

Consider Q8L, for which the abundance fitness is -0.108 ± 0.089.

Take Q8P: the abundance fitness is -0.42 ± 0.11.

Q8C: the abundance fitness is -0.386 ± 0.14.

Regarding Q8F, the abundance fitness is -0.412 ± 0.21.

With Q8R, the abundance fitness is -0.241 ± 0.058.

Regarding Q8W, the abundance fitness was -0.581 ± 0.11.

Q8M: the abundance fitness is -0.416 ± 0.15.

As to Q8E, the abundance fitness was 0.003 ± 0.085.

On to Q8G, for which the abundance fitness is -0.301 ± 0.057.

For the variant Q8N, the abundance fitness is -0.585 ± 0.15.

In the case of Q8S, the abundance fitness is -0.362 ± 0.08.

Turning to Q8T, the abundance fitness is -0.065 ± 0.14.

For the variant Q8Y, the abundance fitness is -0.49 ± 0.24.

On to Q8I, for which the abundance fitness was -0.069 ± 0.18.

As for Q8A, the abundance fitness was -0.145 ± 0.069.

On to K7N, for which the abundance fitness is -0.074 ± 0.1.

With K7H, the abundance fitness was found to be 0.065 ± 0.12.

Consider K7T, for which the abundance fitness was determined as 0.042 ± 0.083.

Consider K7S, for which the abundance fitness was -0.005 ± 0.066.

On to K7M, for which the abundance fitness is 0.144 ± 0.094.

As to K7P, the abundance fitness was -0.587 ± 0.087.

As for K7E, the abundance fitness worked out at 0.135 ± 0.08.

For K7Q, the abundance fitness came to 0.062 ± 0.11.

As to K7G, the abundance fitness is -0.319 ± 0.054.

In the case of K7F, the abundance fitness is 0.104 ± 0.13.

As for K7I, the abundance fitness is -0.055 ± 0.17.

Turning to K7A, the abundance fitness came out at 0.027 ± 0.064.

K7L: the abundance fitness is 0.065 ± 0.072.

Take K7C: the abundance fitness is -0.276 ± 0.12.

With K7V, the abundance fitness stood at 0.124 ± 0.062.

Regarding K7R, the abundance fitness was -0.174 ± 0.055.

As to K7Y, the abundance fitness was -0.016 ± 0.15.

Take F10H: the abundance fitness is -0.132 ± 0.14.

In the case of F10R, the abundance fitness is -0.332 ± 0.064.

As for F10P, the abundance fitness is -0.177 ± 0.097.

As for F10V, the abundance fitness is -0.511 ± 0.075.

Regarding F10K, the abundance fitness was -0.318 ± 0.12.

F10E: the abundance fitness was -0.067 ± 0.087.

As for F10D, the abundance fitness is -0.22 ± 0.13.
